From patent US10239925B2, “Peptides and combination of peptides for use in immunotherapy against ovarian cancer and other cancers” (IMMATICS BIOTECHNOLOGIES GMBH, priority 2015, dated 2019)

What follows are substances tested against HLA-A*02:01 (Homo sapiens, UniProt P04439, D140Y/D185E/D98H/E176V/E277Q/G131W/G231S/I119V/I121R/I166T/I218V/L300P/L318F/N151K/N90K/P208A/P217A/Q86G/Q94H/R138H/R169H/T345S) (assay: MHC binding assay (UV-ligand exchange, anti-β2m ELISA, peptide exchange yield)). Settings: binding to HLA-A*02:01.
Summary of the method: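 Yield of stabilized complexes quantified via the β2m light chain in an ELISA (streptavidin capture, 100-fold diluted monomers, HRP anti-β2m 2 ug/ml at 37 °C, TMB, A450). The complexes come from UV-triggered replacement of a photocleavable ligand by the candidate peptide.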

| Peptide exchange (MHC class I binding score, peptide exchange yield) | Substance |
| --- | --- |
| “+++” (>50 = +++) | 129 (GLLDGGVDILL; listed as Homo sapiens) [compound 129] |
| “+++” (>50 = +++) | 619 (ALQDRVPLA; listed as Homo sapiens) [compound 619] |
| “+++” (>50 = +++) | 498 (KLWTGGLDNTV; listed as Homo sapiens) [compound 498] |
| “+++” (>50 = +++) | 594 (IMLKGDNITL; listed as Homo sapiens) [compound 594] |
| “++++” (>75% = ++++) | 466 (VLIANLEKL; listed as Homo sapiens) [compound 466] |
| “+++” (>50 = +++) | 367 (SLQNHNHQL; listed as Homo sapiens) [compound 367] |
| “+++” (>50 = +++) | 584 (ALAEVAAMENV; listed as Homo sapiens) [compound 584] |
| “+++” (>50 = +++) | 507 (KLIDDQDISISL; listed as Homo sapiens) [compound 507] |
| “++” (>20% = ++) | 186 (TLFFQQNAL; listed as Homo sapiens) [compound 186] |
| “+++” (>50 = +++) | 509 (FLFDTKPLIV; listed as Homo sapiens) [compound 509] |
| “+++” (>50 = +++) | 73 (NIFDLQIYV; listed as Homo sapiens) [compound 73] |
| “++++” (>75% = ++++) | 340 (ALLSMTFPL; listed as Homo sapiens) [compound 340] |
| “+++” (>50 = +++) | 266 (KITDTLIHL; listed as Homo sapiens) [compound 266] |
| “+++” (>50 = +++) | 606 (ALWETEVYI; listed as Homo sapiens) [compound 606] |
| “++” (>20% = ++) | 538 (LLLAHIIAL; listed as Homo sapiens) [compound 538] |
| “++” (>20% = ++) | 405 (ALYDVFLEV; listed as Homo sapiens) [compound 405] |
| “+++” (>50 = +++) | 390 (ALFMKQIYL; listed as Homo sapiens) [compound 390] |
| “+++” (>50 = +++) | 155 (RVANLHFPSV; listed as Homo sapiens) [compound 155] |
| “+++” (>50 = +++) | 586 (KLKPGDLVGV; listed as Homo sapiens) [compound 586] |
| “++” (>20% = ++) | 523 (YQIPRTFTL; listed as Homo sapiens) [compound 523] |
| “+++” (>50 = +++) | 301 (FLVEDLVDSL; listed as Homo sapiens) [compound 301] |
| “++++” (>75% = ++++) | 349 (SLTEYLQNV; listed as Homo sapiens) [compound 349] |
| “+++” (>50 = +++) | 101 (ILVGGGALATV; listed as Homo sapiens) [compound 101] |

| Peptide exchange (MHC class I binding score, peptide exchange yield) | Substance |
| --- | --- |
| “+++” (>50 = +++) | 623 (YLVEDIQHI; listed as Homo sapiens) [compound 623] |
| “+++” (>50 = +++) | 551 (KLYESLLPFA; listed as Homo sapiens) [compound 551] |
| “+++” (>50 = +++) | 439 (YLLQEIYGI; listed as Homo sapiens) [compound 439] |
| “++” (>20% = ++) | 524 (ALIENLTHQI; listed as Homo sapiens) [compound 524] |
| “+++” (>50 = +++) | 97 (SLINGSFLV; listed as Homo sapiens) [compound 97] |
| “+++” (>50 = +++) | 352 (SLLELLHIYV; listed as Homo sapiens) [compound 352] |
| “+++” (>50 = +++) | 284 (ILLSQTTGV; listed as Homo sapiens) [compound 284] |
| “+++” (>50 = +++) | 441 (ALLENPKMEL; listed as Homo sapiens) [compound 441] |
| “+++” (>50 = +++) | 514 (ILVDWLVQV; listed as Homo sapiens) [compound 514] |
| “+++” (>50 = +++) | 550 (FLYDEIEAEVNL; listed as Homo sapiens) [compound 550] |
| “++” (>20% = ++) | 124 (ALYETELADA; listed as Homo sapiens) [compound 124] |
| “+++” (>50 = +++) | 325 (FIMPATVADATAV; listed as Homo sapiens) [compound 325] |
| “+++” (>50 = +++) | 110 (FLSQVDFEL; listed as Homo sapiens) [compound 110] |
| “+++” (>50 = +++) | 544 (LLWDVPAPSL; listed as Homo sapiens) [compound 544] |
| “+++” (>50 = +++) | 549 (AMLENASDIKL; listed as Homo sapiens) [compound 549] |
| “+++” (>50 = +++) | 295 (VLDRESPNV; listed as Homo sapiens) [compound 295] |
| “++” (>20% = ++) | 380 (TLIEDEIATI; listed as Homo sapiens) [compound 380] |
| “++” (>20% = ++) | 15 (VLLTFKIFL; listed as Homo sapiens) [compound 15] |
| “++++” (>75% = ++++) | 53 (KMIETDILQKV; listed as Homo sapiens) [compound 53] |
| “+++” (>50 = +++) | 399 (YLFEPLYHV; listed as Homo sapiens) [compound 399] |
| “++” (>20% = ++) | 131 (FVPPVTVFPSL; listed as Homo sapiens) [compound 131] |
| “+++” (>50 = +++) | 595 (VLLSIYPRV; listed as Homo sapiens) [compound 595] |
| “+++” (>50 = +++) | 107 (FLQPVDDTQHL; listed as Homo sapiens) [compound 107] |

| Peptide exchange (MHC class I binding score, peptide exchange yield) | Substance |
| --- | --- |
| “+++” (>50 = +++) | 362 (TLYGLSVLL; listed as Homo sapiens) [compound 362] |
| “++++” (>75% = ++++) | 329 (FLVTLNNVEV; listed as Homo sapiens) [compound 329] |
| “++” (>20% = ++) | 455 (SLLKEPQKVQL; listed as Homo sapiens) [compound 455] |
| “++” (>20% = ++) | 354 (LILEGVDTV; listed as Homo sapiens) [compound 354] |
| “+++” (>50 = +++) | 181 (LLWAGTAFQV; listed as Homo sapiens) [compound 181] |
| “++++” (>75% = ++++) | 168 (KILDADIQL; listed as Homo sapiens) [compound 168] |
| “++” (>20% = ++) | 115 (AIAGAGILYGV; listed as Homo sapiens) [compound 115] |
| “+++” (>50 = +++) | 254 (TLLAFIMEL; listed as Homo sapiens) [compound 254] |
| “++++” (>75% = ++++) | 320 (KMFEFVEPLL; listed as Homo sapiens) [compound 320] |
| “++” (>20% = ++) | 44 (ILDPISSGFLL; listed as Homo sapiens) [compound 44] |
| “++” (>20% = ++) | 615 (VLPPDTDPA; listed as Homo sapiens) [compound 615] |
| “+++” (>50 = +++) | 245 (SMIDDLLGV; listed as Homo sapiens) [compound 245] |
| “+++” (>50 = +++) | 304 (MTLGQIYYL; listed as Homo sapiens) [compound 304] |
| “+++” (>50 = +++) | 161 (ALLEGVNTV; listed as Homo sapiens) [compound 161] |
| “++” (>20% = ++) | 209 (KLIESKHEV; listed as Homo sapiens) [compound 209] |
| “+++” (>50 = +++) | 167 (KVLEVTEEFGV; listed as Homo sapiens) [compound 167] |
| “+++” (>50 = +++) | 500 (SLMEDQVLQL; listed as Homo sapiens) [compound 500] |
| “+++” (>50 = +++) | 315 (YLQDVVEQA; listed as Homo sapiens) [compound 315] |
| “+++” (>50 = +++) | 27 (ILADIVISA; listed as Homo sapiens) [compound 27] |
| “++++” (>75% = ++++) | 358 (ALDEYTSEL; listed as Homo sapiens) [compound 358] |
| “++++” (>75% = ++++) | 321 (GLFEDVTQPGILL; listed as Homo sapiens) [compound 321] |
